Data from patent publication US20250197485A1, “Anti-ED-A Antibodies for the Treatment of Pulmonary Hypertension” (Universitätsklinikum Jena, priority 2022, published 2025).

Tests used:
MCT-induced PH [1] = test: Right heart catheterization (RVPsys) in mouse model of MCT-induced PH; type: in vivo, C57BL/6 mice
Text: PH was induced in C57BL/6 mice (bodyweight: 25-30 g). The animals were obtained from ZET facility (Zentale Experimentelle Tierhaltung) of the University Hospital Jena (UKJ, Jena, Germany). Prior to PH induction, mice were allowed to acclimatize for at least 7 days with ad libitum access to food and water as well as controlled light/dark cycles. 41 animals were investigated divided into the following five experimental groups: • 1) sham induced controls (n=7) • 2) MCT induced PH (n=12) • 3) MCT induced PH+MAC (n=6) • 4) MCT induced PH+F8 IgG (n=8) • 5) MCT induced PH+KSF IgG (n=8)
For PH induction, the Monocrotaline (MCT, Carl Roth, Germany) method was used.
The sham induced controls were injected with 30 μl NaCl not containing MCT at day 1 (single dose; intraperitoneally, i.p.). […] The other 4 experimental groups were injected with MCT to induce PH (single dose; intraperitoneally, i.p.; 60 mg/kg body weight; volume 30 μl). Animals in the MCT induced PH+MAC group received the drug (Macitentan, Actelion Pharmaceuticals Ltd.) from day 14 to day 28 (once daily; per os; 15 mg/kg body weight). Animals in the MCT induced PH+F8 IgG group received F8 IgG 3 times on day 14, 16 and 18 (intravenously, i.v.; 195 μg/injection; volume 200 μl). Similarly, animals in the MCT induced PH+KSF IgG group received KSF IgG 3 times on day 14, 16 and 18 (intravenously, i.v.; 195 μg/injection; volume 120 μl).
On day 28 after MCT injection, mice of all experimental groups were deeply anesthetized with a single dose of 100 mg/kg body weight ketamine and 10 mg/kg body weight Xylazin in approximately 60 μl each administered i.p.
Right heart catheterization using a 1.4 F micro conductance pressure-volume catheter (Model SPR-839; Millar Instruments Inc; PowerLab system, ADInstruments Ltd., Oxford, UK) was performed via the right vena jugularis interna to measure the systolic right ventricular pressure and thereby verify the success of the experimental setting. Mice were then sacrificed in deep anesthesia and analgesia to carry out cardiac blood collection after thoracotomy and to harvest the organs.
Statistical analyses were performed using IBM SPSS statistical software, version 28.0 (IBM SPSS Statistics for Windows. Armonk, NY, USA). Data are expressed as mean±standard deviation. Kruskal-Wallis and Mann-Whitney-U test were used to test for significant differences between the different groups. A p-value<0.05 as statistically significant.

MCT-induced PH [2] = test: Mouse model of MCT-induced PH, overall hemodynamic, echocardiographic and histopathological evaluation; type: in vivo, C57BL/6 mice; conditions: compared with MAC treatment
Text: PH was induced in C57BL/6 mice (bodyweight: 25-30 g). The animals were obtained from ZET facility (Zentale Experimentelle Tierhaltung) of the University Hospital Jena (UKJ, Jena, Germany). Prior to PH induction, mice were allowed to acclimatize for at least 7 days with ad libitum access to food and water as well as controlled light/dark cycles. 41 animals were investigated divided into the following five experimental groups: • 1) sham induced controls (n=7) • 2) MCT induced PH (n=12) • 3) MCT induced PH+MAC (n=6) • 4) MCT induced PH+F8 IgG (n=8) • 5) MCT induced PH+KSF IgG (n=8) For PH induction, the Monocrotaline (MCT, Carl Roth, Germany) method was used. […] The clinical condition was assessed using an established score (clinical severity score=CSS) from 1 to 5 (1=no signs of clinical alterations, 2=low-grade impairment, 3=mid-grade impairment, 4=high-grade impairment, 5=exitus) obtained by evaluating spontaneous activity, reaction to exogenous stimuli and posture. […] Body temperature and respiratory rate were continuously monitored. All surrogate parameters of right ventricular (RV) morphology and function were assessed, among others, RV basal and medial diameters (in mm), RV length (in mm), tricuspid annular plane systolic excursion (TAPSE, in mm), right atrial area (RA area, in mm^2) or main pulmonary artery diameter (MPA, in mm). […] Data are expressed as mean±standard deviation. […]

B1: F8 IgG: Chimaeric anti-ED-A antibody: human F8 VH/VL fused to murine IgG2a constant regions; heavy chain SEQ ID NO: 11, light chain SEQ ID NO: 12 (antibody)
heavy: EVQLLESGGGLVQPGGSLRLSCAASGFTFSLFTMSWVRQAPGKGLEWVSAISGSGGSTYYADSVKGRFTISRDNSKNTLYLQMNSLRAEDTAVYYCAKSTHLYLFDYWGQGTLVTVSSAKTTAPSVYPLAPVCGDTTGSSVTLGCLVKGYFPEPVTLTWNSGSLSSGVHTFPAVLQSDLYTLSSSVTVTSSTWPSQSITCNVAHPASSTKVDKKIEPRGPTIKPCPPCKCPAPNLLGGPSVFIFPPKIKDVLMISLSPIVTCVVVDVSEDDPDVQISWFVNNVEVHTAQTQTHREDYNSTLRVVSALPIQHQDWMSGKEFKCKVNNKDLPAPIERTISKPKGSVRAPQVYVLPPPEEEMTKKQVTLTCMVTDFMPEDIYVEWTNNGKTELNYKNTEPVLDSDGSYFMYSKLRVEKKNWVERNSYSCSVVHEGLHNHHTTKSFSRTPGK
light: EIVLTQSPGTLSLSPGERATLSCRASQSVSMPFLAWYQQKPGQAPRLLIYGASSRATGIPDRFSGSGSGTDFTLTISRLEPEDFAVYYCQQMRGRPPTFGQGTKVEIKRTDAAPTVSIFPPSSEQLTSGGASVVCFLNNFYPKDINVKWKIDGSERQNGVLNSWTDQDSKDSTYSMSSTLTLTKDEYERHNSYTCEATHKTSTSPIVKSFNRNEC
MCT-induced PH [1]; day 28, F8 IgG 195 μg i.v. day 14, 16, 18 (p=0.010), MAC 15 mg/kg per os once daily day 14-28 (n.s.)
  attenuation in RVPsys compared to the MCT-induced PH group without treatment (positive control): significant attenuation
MCT-induced PH [1]; day 28, p=0.003
  RVPsys compared to the group treated with the negative control antibody KSF IgG: significantly reduced
MCT-induced PH [1]; in contrast to treatment with KSF IgG
  pressure values in the right ventricle (RVPsys): significant reduction
MCT-induced PH [2]
  beneficial effects with respect to the majority of the parameters (RVPsys, echocardiographic signs, lung tissue damage): superior to MAC treatment
